Source: US20040192898A1 (published 2004)

Biological target: T1, Amyloid-beta 1-42 (UniProt P05067 672-713)
T1 construct: domain: Amyloid-beta 1-42; Bought peptide; 1-42 counts on the Aβ peptide, not on APP; also called Aβ1-42
Assay: SPR, BIAcore 2000; antibody captured, Aβ flowed over
Method: Antibody affinity (KD=Kd/Ka) was determined using a BlAcore biosensor 2000 and data analyzed with BlAevaluation (v. 3.1) software. A capture antibody (rabbit anti-mouse) was coupled via free amine groups to carboxyl groups on flow cell 2 of a biosensor chip (CM5) using N-ethyl-N-dimethylaminopropyl carbodiimide and N-hydroxysuccinimide (EDC/NHS). A non-specific rabbit IgG was coupled to flow cell 1 as a background control. Monoclonal antibodies were captured to yield 300 resonance units (RU). […] To regenerate the chip, bound anti-Aβ antibody was eluted from the chip using a wash with glycine-HCI (pH 2). A control injection containing no amyloid-beta served as a control for baseline subtraction.

T1 sequence (P05067 672-713 limits assumed): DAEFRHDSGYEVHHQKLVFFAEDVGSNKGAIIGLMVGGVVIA

Kd: 4 pM
B1: Humanized 266 antibody (antibody, human IgG1, kappa, V domains shown)
VH: EVQLVESGGGLVQPGGSLRLSCAASGFTFSRYSMSWVRQAPGKGLELVAQINSVGNSTYYPDTVKGRFTISRDNAKNTLYLQMNSLRAEDTAVYYCASGDYWGQGTLVTVSS
VL: DVVMTQSPLSLPVTLGQPASISCRSSQSLIYSDGNAYLHWFLQKPGQSPRLLIYKVSNRFSGVPDRFSGSGSGTDFTLKISRVEAEDVGVYYCSQSTHVPWTFGQGTKVEIKR
modifications: N-glycosylated at Asn 56 (fully) and Asn 292
notes: Human IgG1 (pVg1) / kappa, expressed in Sp2/0; also called Hu266
